In patent US6620616B1, “Nucleic acids encoding nitric oxide synthase variants” (The Cleveland Clinic Foundation, priority 2000, dated 2003):

Columns and labels:
[1] = NO synthesis from Arg (initial rate); assay type: biochemical; conditions: for NO synthesis from Arg, turn over number (kcat): 25° C.
Method: (§1) The initial rate of NO synthesis, NADPH oxidation, or cytochrome c reduction by wild type and mutants was quantitated at 25° C. as described in Abu-Soud et al. (1997) J. Biol. Chem 272: 10769-10772. H2O2-dependent nNOS oxidation of NOHA to nitrite was assayed in 96-well microplates at 30° C. The assay volume was 100 μl and contained 40 mM EPPS, pH 7.6, 250 nM nNOS or mutants, 1 mM NOHA, 1 mM DTT, 25 units/ml superoxide dismutase 0.5 mM EDTA, and 4 μM H4B. Reactions were initiated by adding 30 mM H2O2 and stopped after 10 min by adding 1300 units of catalase. Nitrite was detected at 550 nm using the Griess reagent (100 μL) and quantitated based on nitrite standards.

NADPH oxidation = assay type: biochemical; conditions: 25° C.
Method: as §1

cytochrome c = assay: Cytochrome c reduction; assay type: biochemical; conditions: 25° C.
Method: as §1

[2] = NO synthesis from NOHA (initial rate); assay type: biochemical; conditions: 25° C.
Method: as §1

[3] = Ferrous-nitrosyl complex formation during aerobic steady state; assay type: biochemical; conditions: air-saturated buffer, 15° C., 1 mM Arg, 20 μM H4B
Method: NO down-regulates the rate of NO synthesis and associated electron flux by binding to the nNOS heme. We therefore investigated if NO binding to the heme was altered by the Trp-409 mutations during aerobic steady-state catalysis. In this study, 0.6 μM nNOS was diluted is an air-saturated 40 mM EPPS buffer, pH 7.6, containing 0.9 mM EDTA, 3 μM CaM, 200 μM DTT, 20 μM H4B, 80 μM NADPH, and 1 mM Arg; final volume 1 ml. Reactions were started by adding 1.2 mM Ca^2+ and monitored by wavelength scanning at 15° C.

[4] = Ferric- and ferrous-NO complex formation under anaerobic conditions; assay type: binding; conditions: Arg and H4B present
Method: Given the above, we investigated if either mutant could form stable ferric or ferrous NO complexes with authentic NO under an anaerobic atmosphere in the presence of Arg and H4B, as occurs for wild-type nNOS. Concentrated small amounts of nNOS or mutants were placed into an anaerobic cuvette with 4 μM H4B, 1 mM Arg, and 200 μM DTT and made anaerobic by repeated cycles of evacuation and equilibration with deoxygenated argon gas. A 40 mM EPPS buffer containing 4 μM H4B, 1 mM Arg, and 200 μM DTT was separately made anaerobic, and 1 ml of this solution was transferred to the cuvette. NO gas was added to the head space and dissolved by mixing. Dithionite solution was then added in some cases.

[5] = NO synthesis versus O2 concentration (oxyhemoglobin assay); assay type: biochemical; conditions: O2 levels ranging from 0 to 230 mm O2, 25° C., FIG. 3
Method: The reaction was started by adding 0.2 mM NADPH. Rates of synthesis were quantified as follows: the initial rate of NO synthesis by nNOS was quantitated at 25° C. using oxyhemoglobin assay for NO, according to the method found in Abu-Soud and Stuehr (1993) Proc. Natl. Acad. Sci. U.S.A. 90:10769-10772. The NO mediated conversion of oxyhemoglobin to met-hemoglobin was monitored over time as an absorbence increase at 401 nm, and quantitated using the extinction coefficient of 38 mM^−1 cm^−1. Quantitation was done with a Hitachi U2000 spectrophotometer. O2 concentration measurement in each reaction was calculated based on the O2 concentration of a saturated buffer at 25° C. (approximately 0.26 mM) and the mixing ratios of this solution with an anaerobic buffer that contained no oxygen. […] The difference in the enzymatic activity of the NOS variant and wild-type NOS is most pronounced at low concentrations of O2, i.e., concentrations ranging from 0 to 50 μM.

[6] = CaM-bound, +H4B, NAME (nitro-L-arginine methyl ester)

| Substance | NO synthesis from Arg, turn over number (kcat) ([1]; +CaM) | NO synthesis from Arg, turn over number (kcat) ([1]; −CaM) | NADPH oxidation, turn over number (kcat) (NADPH oxidation; +CaM) | NADPH oxidation, turn over number (kcat) (NADPH oxidation; CaM-bound, +H4B, Arg) | NADPH oxidation, turn over number (kcat) (NADPH oxidation; [6]) | NADPH oxidation, turn over number (kcat) (NADPH oxidation; CaM-bound, +H4B, agmatine) | NADPH oxidation, turn over number (kcat) (NADPH oxidation; CaM-bound, +H4B, −Arg) | NADPH oxidation, turn over number (kcat) (NADPH oxidation; CaM-bound, −H4B, −Arg) | NADPH oxidation, turn over number (kcat) (NADPH oxidation; −CaM) | Cytochrome c reduction, turn over number (kcat) (cytochrome c; +CaM) | Cytochrome c reduction, turn over number (kcat) (cytochrome c; −CaM) | NO synthesis from NOHA, turn over number (kcat) ([2]; +CaM) | NO synthesis from NOHA, turn over number (kcat) ([2]; −CaM) | 6-coordinate ferrous-NO complex accumulation (absorbance buildup at 436 nm) during steady-state NO synthesis [3] | ferric NO complex formation with authentic NO [4] | ferrous-NO complex after dithionite reduction ([4]; dithionite added) | faster rate of NO synthesis from Arg compared with the wild type ([1]; +CaM) | rate of NO production relative to wild-type nNOS [5] |
| --- | --- | --- | --- | --- | --- | --- | --- | --- | --- | --- | --- | --- | --- | --- | --- | --- | --- | --- |
| nNOS: wild-type rat neuronal nitric oxide synthase, His6-tagged, expressed in E. coli; non-variant comparator [reference compound] | 96 mol of product formed/mol of protein/min | 0 mol of product formed/mol of protein/min | 170 mol of product formed/mol of protein/min | 160 + 12 min^−1 | 22 + 4 min^−1 | 250 + 20 min^−1 | 500 + 25 min^−1 | 290 + 25 min^−1 | 11.2 mol of product formed/mol of protein/min | 7000 mol of product formed/mol of protein/min | 500 mol of product formed/mol of protein/min | 115 mol of product formed/mol of protein/min | 0 mol of product formed/mol of protein/min | a significant percentage accumulated as the 6-coordinate ferrous-NO complex | formed stable 6-coordinate ferric NO complexes | stable 6-coordinate ferrous-NO complex | – | – |
| W409F: rat nNOS variant with phenylalanine (F) at position 409 in place of tryptophan, His6-tagged, expressed in E. coli | 286 mol of product formed/mol of protein/min | 0 mol of product formed/mol of protein/min | 445 mol of product formed/mol of protein/min | 480 + 20 min^−1 | 16 + 3 min^−1 | 180 + 10 min^−1 | 189 + 15 min^−1 | 105 + 10 min^−1 | 5.6 mol of product formed/mol of protein/min | 5000 mol of product formed/mol of protein/min | 230 mol of product formed/mol of protein/min | 453 mol of product formed/mol of protein/min | 0 mol of product formed/mol of protein/min | small | – | – | 3 fold | faster than the wild-type nNOS protein |
| W409Y: rat nNOS variant with tyrosine (Y) at position 409 in place of tryptophan, His6-tagged, expressed in E. coli | 155 mol of product formed/mol of protein/min | 0 mol of product formed/mol of protein/min | 237 mol of product formed/mol of protein/min | 250 + 20 min^−1 | 25 + 4 min^−1 | 170 + 10 min^−1 | 124 + 4 min^−1 | 74 + 8 min^−1 | 11.2 mol of product formed/mol of protein/min | 5546 mol of product formed/mol of protein/min | 280 mol of product formed/mol of protein/min | 180 mol of product formed/mol of protein/min | 0 mol of product formed/mol of protein/min | no | – | – | 1.8 fold | faster than the wild-type nNOS protein |
